In this assay the target is GST-tag (glutathione S-transferase) freed from GST-ΔN-ATAD2B. In words: SEC; Superdex 200 Increase 10/300 GL (ÄKTAprime), ATAD2B sample from E. coli against a molecular-weight standard mixture; peak 1 ~9 ml near thyroglobulin (670 kDa), peak 2 ~15 ml before ovalbumin (44 kDa).

The stoichiometry N is the number of molecules, sites or subunits per partner or assembly. Regarding “GST-tag (glutathione S-transferase) freed from GST-ΔN-ATAD2B”, the stoichiometry N was 2.

For the origin of these results see paper PMC12954864.
